Experimental data taken from patent publication US20230381333A1 (HANMI PHARM, published 2023).
Bridge positions count the residues as written; N and C are the ends. Square brackets hold non-standard residues; d marks the D form. Ends that are not written are not given here. * marks the point of attachment. Acetyl(2-(4-imidazolyl)) = O=C(Cc1c[nH]cn1)*; Aib = CC(C)(N)C(=O)O

T1: human GIP receptor (human, UniProt P48546 22-466)
T1 sequence (looked up): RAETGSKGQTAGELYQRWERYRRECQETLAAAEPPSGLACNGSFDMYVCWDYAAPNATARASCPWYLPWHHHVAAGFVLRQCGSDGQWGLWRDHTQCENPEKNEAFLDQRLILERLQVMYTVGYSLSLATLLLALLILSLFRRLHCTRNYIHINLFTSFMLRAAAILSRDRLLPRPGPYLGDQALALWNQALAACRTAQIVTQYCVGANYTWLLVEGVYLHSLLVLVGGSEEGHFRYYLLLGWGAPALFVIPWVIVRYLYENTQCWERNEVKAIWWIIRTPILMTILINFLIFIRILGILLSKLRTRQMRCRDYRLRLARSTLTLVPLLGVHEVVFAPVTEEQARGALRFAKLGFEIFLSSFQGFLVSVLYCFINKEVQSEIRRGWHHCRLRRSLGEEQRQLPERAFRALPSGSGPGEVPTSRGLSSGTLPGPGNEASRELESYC


Experiments:
Assay in all cases: cell-based or functional assay
human GIP receptor = biological target: T1, human GIP receptor
human GCG receptor = human GCG receptor (human, UniProt P47871 26-477)
human GLP-1 receptor = human GLP-1 receptor (human, UniProt P43220 24-463)

Chain of human GCG receptor (P47871 26-477): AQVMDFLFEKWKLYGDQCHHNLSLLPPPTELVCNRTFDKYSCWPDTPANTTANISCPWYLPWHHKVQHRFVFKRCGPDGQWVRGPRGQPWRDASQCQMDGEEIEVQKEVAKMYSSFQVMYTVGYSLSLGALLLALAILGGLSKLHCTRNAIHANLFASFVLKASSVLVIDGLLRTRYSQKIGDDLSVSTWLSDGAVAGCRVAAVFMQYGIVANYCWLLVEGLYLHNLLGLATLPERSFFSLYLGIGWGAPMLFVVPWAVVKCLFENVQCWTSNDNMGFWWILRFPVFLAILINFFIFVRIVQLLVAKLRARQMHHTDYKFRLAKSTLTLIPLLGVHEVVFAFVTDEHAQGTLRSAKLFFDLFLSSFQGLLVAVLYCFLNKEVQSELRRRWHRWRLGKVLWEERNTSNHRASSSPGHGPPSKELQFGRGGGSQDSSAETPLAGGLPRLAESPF

Row | Binder | In vitro activity compared to native-type peptide (%), vs GIP (human GIP receptor) [%] | In vitro activity compared to native-type peptide (%), vs Glucagon (human GCG receptor) [%] | In vitro activity compared to native-type peptide (%), vs GLP-1 (human GLP-1 receptor) [%]
1 | H[Aib]QGTFTSDVSSYLDGQAAKEFIAWLVKGC [triple agonist of SEQ ID NO: 1] | < 0.1 | < 0.1 | 3.2
2 | H[Aib]QGTFTSDYSKYLDEKRQKEFVQWLLNTKC (bridge 16-20) [triple agonist of SEQ ID NO: 58] | 0.2 | 2.6 | 39.1
3 | H[Aib]QGTFTSDVSSYLLGQQQKEFIAWLVKGC [triple agonist of SEQ ID NO: 4] | < 0.1 | < 0.1 | 8.5
4 | Y[Aib]QGTFTSDYSKYLDEKRAKEFVQWLLDHHCSSGQPPPS (bridge 16-20) [triple agonist of SEQ ID NO: 43] | 3.7 | 88.4 | 12.6
5 | [Acetyl(2-(4-imidazolyl))][Aib]QGTFTSDYSICMDEIHQKDFVNWLLNTK (bridge 16-20) [triple agonist of SEQ ID NO: 49] | 3.3 | < 0.1 | 29.8
6 | H[Aib]QGTFTSDYSKYLCEKRQKEFVQWLLNGGPSSGAPPPSG (bridge 16-20) [triple agonist of SEQ ID NO: 36] | 0.2 | 0.39 | 37.4
7 | H[Aib]EGTFTSDYSIAMDEIHQKDFVNWLLAQC (bridge 16-20) [triple agonist of SEQ ID NO: 53] | 1.3 | 8.4 | 161
8 | H[Aib]QGTFTSDYSKYLDGQHAQCFVAWLLAGGGPSSGAPPPS [triple agonist of SEQ ID NO: 39] | < 0.1 | 0.53 | 13.9
9 | H[Aib]QGTFTSDYSIAMDEIHQKDFVNWLLAQC (bridge 16-20) [triple agonist of SEQ ID NO: 55] | 2.4 | 0.7 | 27.1
10 | H[Aib]QGTFTSDYSIAMDEIHQKDFVNWLLNTKC (bridge 16-20) [triple agonist of SEQ ID NO: 35] | 1.3 | < 0.1 | 7.5
11 | H[Aib]QGTFTSDKSKYLDERACQDFVQWLLDGGPSSGAPPPS [triple agonist of SEQ ID NO: 40] | < 0.1 | < 0.1 | 75.2
12 | H[Aib]QGTFTSDYSKYLDECRQKEFVQWLLNGGPSSGAPPPSG (bridge 16-20) [triple agonist of SEQ ID NO: 37] | 2.2 | 6.21 | 236
13 | H[Aib]EGTFTSDYSIAMDEIHQKDFVDWLLAEC (bridge 16-20) [triple agonist of SEQ ID NO: 54] | 0.1 | 1.4 | 30.6
14 | H[Aib]QGTFTSDYSKYLDEKRAKEFVQWLLDHHPSSGQPPPSC (bridge 16-20) [triple agonist of SEQ ID NO: 50] | 2.7 | 50.5 | 67.4
15 | HGQGTFTSDCSKQLDGQAAQEFVAWLLAGGPSSGAPPPS [triple agonist of SEQ ID NO: 44] | < 0.1 | < 0.1 | 1.3
16 | HGQGTFTSDCSKYLDEQHAQEFVAWLLAGGPSSGAPPPS [triple agonist of SEQ ID NO: 46] | < 0.1 | < 0.1 | 1.4
17 | HGQGTFTSDCSKYLDGQRAQDFVNWLLAGGPSSGAPPPS [triple agonist of SEQ ID NO: 48] | < 0.1 | < 0.1 | 1.5
18 | HGQGTFTSDCSKYLDGQRAQEFVAWLLAGGPSSGAPPPS [triple agonist of SEQ ID NO: 47] | < 0.1 | < 0.1 | 2.4
19 | HGQGTFTSDCSKYMDGQAAQDFVAWLLAGGPSSGAPPPS [triple agonist of SEQ ID NO: 45] | < 0.1 | < 0.1 | 6.6
20 | H[Aib]QGTFTSDYSKYLDEKRQKEFVNWLLAQC (also: ring formation (underlined residues), positions not given here) [triple agonist of SEQ ID NO: 56] | 0.8 | 4.9 | 57.9
21 | H[Aib]QGTFTSDVSSYLDGQAAKEFVAWLLKGC [triple agonist of SEQ ID NO: 6] | < 0.1 | < 0.1 | 17
22 | H[Aib]QGTFTSDYSIAMDEIHQKDFVNWLLNTC (bridge 16-20) [triple agonist of SEQ ID NO: 57] | 0.3 | < 0.1 | 11.7
23 | H[Aib]QGTFTSDYSKYLDEKRQKEFVQWLLNTC (bridge 16-20) [triple agonist of SEQ ID NO: 51] | 0.1 | 2 | 14.4
24 | Y[Aib]QGTFTSDYSKYLDEKRAKEFVQWLLDHHPSSGQPPPSC (bridge 16-20) [triple agonist of SEQ ID NO: 42] | 7.8 | 206 | 33.9
25 | H[Aib]QGTFTSDYSKYLDEKRQKEFVQWLLDTC (bridge 16-20) [triple agonist of SEQ ID NO: 52] | 0.3 | 7.5 | 44.1
26 | H[Aib]QGTFTSDYSKYLDEKRQKEFVNWLLAQKC (bridge 16-20) [triple agonist of SEQ ID NO: 34] | 0.6 | 0.92 | 19.1
27 | {Acetyl(2-(4-imidazolyl))}-[Aib]QGTFTSDYSICMDEKHQKDFVNWLLNTK (bridge 15-19) [triple agonist of SEQ ID NO: 59] | 4 | < 0.1 | 40.3
28 | H[Aib]QGTFTSDKSKYLDECAAQDFVQWLLDGGPSSGAPPPS [triple agonist of SEQ ID NO: 41] | < 0.1 | < 0.1 | 34.3
29 | [Acetyl(2-(4-imidazolyl))][Aib]QGTFTSDKSSYLDERAAQDFVQWLLDGGPSSGAPPPSS [triple agonist of SEQ ID NO: 38] | – | – | 2.3
30 | H[Aib]QGTFTSDVSSYLLGQQQKEFIAWLVKGGGPSSGAPPPSC [triple agonist of SEQ ID NO: 5] | < 0.1 | < 0.1 | 42.1
